Experimental data: US20220062145A1 (LIPOTRUE S L, published 2022)

Molecular target: elastase enzyme
Test: cell-based or functional assay

- percentage of elastase inhibition with regard to the positive control (PMSF = 100%), absorbance at 405 nm: ~39 % of positive control
Binder: Ac-ALHKVK-NH2 [Ac-Ala-Leu-His-Lys-Val-Lys-NH2]
